# In patent US20240247080A1, “GLP1/GIP/NPY2 RECEPTOR TRIPLE AGONISTS” (Boehringer Ingelheim International GmbH, priority 2022, published 2024):
# Numbering of substitutions follows the chain as printed. Starred links: 1 amine or outer side, 2 acyl side, 3 side chain; linkers in the order of their positions; H or OH if unused. Non-standard residues stand in square brackets, D forms with d. Groups on a side chain read outwards from the residue. No end group written: not given here. *: point of attachment. C20 diacid = O=C(O)CCCCCCCCCCCCCCCCCCC(=O)*; γGlu = O=C(O)[C@H](CCC(=O)[*:2])N[*:1]; εLys = N[C@@H](CCCCN[*:1])C(=O)[*:2]; AEEA = NCCOCCOCC(=O)O; Aib = CC(C)(N)C(=O)O
# T1: human GIP receptor (human, UniProt P48546 22-466)
# T1 sequence (looked up): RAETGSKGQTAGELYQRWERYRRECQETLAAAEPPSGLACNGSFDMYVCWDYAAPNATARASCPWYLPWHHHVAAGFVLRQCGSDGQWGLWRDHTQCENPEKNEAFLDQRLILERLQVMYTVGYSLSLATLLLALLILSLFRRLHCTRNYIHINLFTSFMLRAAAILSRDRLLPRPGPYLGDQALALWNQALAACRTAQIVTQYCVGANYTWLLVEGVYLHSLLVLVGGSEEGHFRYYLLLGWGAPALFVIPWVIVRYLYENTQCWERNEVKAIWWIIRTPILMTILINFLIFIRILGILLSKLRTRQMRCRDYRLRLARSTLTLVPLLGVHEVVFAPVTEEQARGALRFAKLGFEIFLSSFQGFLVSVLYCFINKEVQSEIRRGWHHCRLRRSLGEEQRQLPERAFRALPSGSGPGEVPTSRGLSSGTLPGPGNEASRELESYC
# T2: human neuropeptide Y2 (NPY2) receptor (human, UniProt P49146 1-381)
# T2 sequence (looked up): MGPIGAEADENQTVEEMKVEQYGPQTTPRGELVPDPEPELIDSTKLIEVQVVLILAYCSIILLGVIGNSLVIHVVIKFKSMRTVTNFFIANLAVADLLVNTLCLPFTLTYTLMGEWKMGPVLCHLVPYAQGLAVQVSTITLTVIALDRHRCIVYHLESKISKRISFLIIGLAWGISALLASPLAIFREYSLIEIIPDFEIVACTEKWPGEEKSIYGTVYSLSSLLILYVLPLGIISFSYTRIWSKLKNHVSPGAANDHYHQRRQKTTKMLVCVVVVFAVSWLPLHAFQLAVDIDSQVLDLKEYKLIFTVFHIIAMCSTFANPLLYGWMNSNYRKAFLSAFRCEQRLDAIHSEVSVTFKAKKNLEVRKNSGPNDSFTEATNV
# B1: Compound 34 (peptide)
# peptide: Y[Aib]EGTFTSDYSI[Aib]LEEQAQ[Aib]AFVQWLIK([εLys-γGlu-γGlu-γGlu-γGlu-γGlu-C20 diacid])GGPSSGASLRHYYNWLTRQRY-NH2
# modifications: also: TFA salt
# B2: Compound 30 (peptide)
# peptide: YXEGTFTSDYSIXLEEQAQXAFVQWLIKGGPSSGASLRHYYNWLTRQRY
# modifications: Aib at 2, 13, 20; K28 side chain: C20DA-gGlu-gGlu-Glu-gGlu-gGlu-gGlu-eLys; C-terminal NH2
# B3: Compound 48 (peptide)
# peptide: B2 peptide with E16K, Q24E, S33E, G34P, A35Q, L37I
# modifications: Aib at 2, 13, 20; K28 side chain: C20DA-gGlu-gGlu-gGlu-gGlu-gGlu-gGlu-eLys; C-terminal NH2
# B4: Compound 36 (peptide)
# peptide: B2 peptide with E16K, A21E
# modifications: Aib at 2, 13, 20; K28 side chain: C20DA-gGlu-gGlu-gGlu-gGlu-gGlu-OEG-OEG; C-terminal NH2
# B5: Compound 39 (peptide)
# peptide: B2 peptide with E16K, Q24E, L37X
# modifications: Aib at 2, 13, 20, 37; NMeR 48; K28 side chain: C20DA-gGlu-gGlu-gGlu-gGlu-gGlu-gGlu-eLys; C-terminal NH2
# B6: Compound 33 (peptide)
# peptide: B2 peptide with E16K, Q24E, G34A, A35V
# modifications: Aib at 2, 13, 20; K28 side chain: C20DA-gGlu-gGlu-gGlu-gGlu-gGlu-gGlu-eLys; C-terminal NH2
# B7: Compound 35 (peptide)
# peptide: B2 peptide with E16K, A35E
# modifications: Aib at 2, 13, 20; K28 side chain: C20DA-gGlu-gGlu-gGlu-gGlu-gGlu-gGlu-eK; C-terminal NH2
# B8: Compound 42 (peptide)
# peptide: B2 peptide with E16K, Q24E, S33E, G34Y, A35V, L37I
# modifications: Aib at 2, 13, 20; K28 side chain: C20DA-gGlu-gGlu-gGlu-gGlu-gGlu-gGlu-eLys; C-terminal NH2
# B9: Compound 47 (peptide)
# peptide: B2 peptide with E16K, A35V
# modifications: Aib at 2, 13, 20; K28 side chain: C20DA-gGlu-gGlu-gGlu-gGlu-gGlu-gGlu-eLys; C-terminal NH2
# B10: Compound 46 (peptide)
# peptide: B2 peptide with E16K, Q17E, A21K, Q24E
# modifications: Aib at 2, 13, 20; K28 side chain: C20DA-gGlu-gGlu-gGlu-gGlu-gGlu-gGlu-eLys; C-terminal NH2
# B11: Compound 50 (peptide)
# peptide: B2 peptide with E16K, Q24E, G34Y, A35E
# modifications: Aib at 2, 13, 20; K28 side chain: C20DA-gGlu-gGlu-gGlu-gGlu-gGlu-gGlu-eLys; C-terminal NH2
# B12: Compound 38 (peptide)
# peptide: B2 peptide with E16K, Q24E, A35V, L37X
# modifications: Aib at 2, 13, 20, 37; K28 side chain: C20DA-gGlu-gGlu-gGlu-gGlu-gGlu-gGlu-eLys; C-terminal NH2
# B13: Compound 5 (peptide)
# peptide: B2 peptide with E16K, Q24E
# modifications: Aib at 2, 13, 20; DLeu 37; DHis 39; DArg 46; DTyr 49; K28 side chain: C20DA-gGlu-gGlu-gGlu-gGlu-gGlu-gGlu-eLys; C-terminal NH2
# B14: Compound 37 (peptide)
# peptide: B2 peptide with E16K, S32E
# modifications: Aib at 2, 13, 20; K28 side chain: C20DA-gGlu-gGlu-gGlu-gGlu-gGlu-gGlu-eLys; C-terminal NH2
# B15: Compound 32 (peptide)
# peptide: B2 peptide with E16K, S32E
# modifications: Aib at 2, 13, 20; K28 side chain: C20DA-gGlu-gGlu-gGlu-gGlu-gGlu-OEG-OEG; C-terminal NH2
# B16: Compound 49 (peptide)
# peptide: B2 peptide with E16K, Q24E, A35E, L37X
# modifications: Aib at 2, 13, 20, 37; K28 side chain: C20DA-gGlu-gGlu-gGlu-gGlu-gGlu-gGlu-eLys; C-terminal NH2
# B17: Compound 40 (peptide)
# peptide: B2 peptide with E16K, Q24E, G34Y, A35V
# modifications: Aib at 2, 13, 20; K28 side chain: C20DA-gGlu-gGlu-gGlu-gGlu-gGlu-gGlu-eLys; C-terminal NH2
# B18: Compound 44 (peptide)
# peptide: B2 peptide with E16K, Q24E, A35Q, L37X
# modifications: Aib at 2, 13, 20, 37; K28 side chain: C20DA-gGlu-gGlu-gGlu-gGlu-gGlu-gGlu-eLys; C-terminal NH2
# B19: Compound 31 (peptide)
# peptide: B2 peptide with Q24E, A35Q
# modifications: Aib at 2, 13, 20; K28 side chain: C20DA-gGlu-gGlu-gGlu-gGlu-gGlu-gGlu-eLys; C-terminal NH2
# B20: Compound 41 (peptide)
# peptide: B2 peptide with E16K, Q24E, G34P, A35Q
# modifications: Aib at 2, 13, 20; K28 side chain: C20DA-gGlu-gGlu-gGlu-gGlu-gGlu-gGlu-eLys; C-terminal NH2
# B21: Compound 43 (peptide)
# peptide: Y[Aib]EGTFTSDYSI[Aib]LEKQAQ[Aib]EFVQWLIK([εLys-γGlu-γGlu-γGlu-γGlu-γGlu-γGlu-γGlu-C20 diacid])GGPSSGASLRHYYNWLTRQRY-NH2
# modifications: also: TFA salt
# B22: Compound 45 (peptide)
# peptide: Y[Aib]EGTFTSDYSI[Aib]LEEQAQ[Aib]AFVQWLIK([εLys-AEEA-γGlu-γGlu-γGlu-γGlu-γGlu-C20 diacid])GGPSSGASLRHYYNWLTRQRY-NH2
# modifications: also: TFA salt
# B23: Compound 6 (peptide)
# peptide: Y[Aib]EGTFTSDYSI[Aib]LEKQAQ[Aib]AFVQWLIKGGQRYYASLRHYYNWLTRQRY-NH2
# modifications: not fully specified (residue 28); also: TFA salt
# Target: T1, human GIP receptor
# Assay: cell-based or functional assay
"EC50, CreLuc assay, 0.5% hP","EC50, CreLuc assay, 100% hP",Binder
0.13 nM,1.61 nM,B1
0.13 nM,1.06 nM,B2
0.07 nM,0.68 nM,B3
0.26 nM,1.57 nM,B4
0.06 nM,0.4 nM,B5
0.25 nM,1.51 nM,B6
0.06 nM,0.96 nM,B7
0.15 nM,1.34 nM,B8
0.25 nM,0.73 nM,B9
0.2 nM,1.21 nM,B10
0.12 nM,1.47 nM,B11
0.04 nM,0.7 nM,B12
0.17 nM,1.07 nM,B13
0.24 nM,1.44 nM,B14
0.16 nM,1.15 nM,B15
0.07 nM,1.25 nM,B16
0.48 nM,4.36 nM,B17
0.05 nM,1.14 nM,B18
0.15 nM,2.63 nM,B19
0.07 nM,0.62 nM,B20
0.64 nM,1.97 nM,B21
0.14 nM,1.15 nM,B22
2.99 nM,31.1 nM,B23

# Target: human GLP-1 receptor (human, UniProt P43220 24-463)
# Assay: cell-based or functional assay
"EC50, CreLuc assay, 0.5% hP","EC50, CreLuc assay, 100% hP",Binder
0.09 nM,1.39 nM,B1
0.08 nM,1.08 nM,B2
0.07 nM,3.1 nM,B3
0.28 nM,7.78 nM,B4
0.09 nM,0.82 nM,B5
0.14 nM,3.17 nM,B6
0.07 nM,1.3 nM,B7
0.36 nM,7.15 nM,B8
0.07 nM,1.14 nM,B9
0.21 nM,5.94 nM,B10
0.13 nM,3.75 nM,B11
0.06 nM,1.28 nM,B12
0.11 nM,1.43 nM,B13
0.11 nM,5.13 nM,B14
0.07 nM,4.74 nM,B15
0.12 nM,2.08 nM,B16
0.46 nM,9.04 nM,B17
0.07 nM,2.12 nM,B18
0.06 nM,2.94 nM,B19
0.06 nM,1.47 nM,B20
0.41 nM,5.91 nM,B21
0.11 nM,1.6 nM,B22
0.9 nM,42.8 nM,B23

# Target: T2, human neuropeptide Y2 (NPY2) receptor
# Assay: cell-based or functional assay
"EC50, CreLuc assay, 0.5% hP","EC50, CreLuc assay, 100% hP",Binder
14.6 nM,66.7 nM,B1
13.3 nM,56.2 nM,B2
9.77 nM,35.2 nM,B3
8.03 nM,26.8 nM,B4
26.9 nM,61.5 nM,B5
9.93 nM,26.7 nM,B6
11.6 nM,29.3 nM,B7
8.82 nM,19.1 nM,B8
7.9 nM,30.5 nM,B9
10.2 nM,36 nM,B10
11.8 nM,52.5 nM,B11
6.9 nM,17.8 nM,B12
> 99.9 nM,> 999 nM,B13
9.53 nM,35.5 nM,B14
12.2 nM,49.3 nM,B15
12.5 nM,36.8 nM,B16
11.9 nM,26.4 nM,B17
9.35 nM,24.5 nM,B18
13.4 nM,43.5 nM,B19
10.2 nM,34.6 nM,B20
13.1 nM,21.1 nM,B21
17.2 nM,46.5 nM,B22
16.9 nM,86.7 nM,B23
